Experiment in all cases: ITC
(In general: In ITC the heat of successive injections is recorded.)

One series has as its target T1, mTet3-CXXC Q82A (Mus musculus (mouse), UniProt Q8BG87 51-96, Q82A).
T1 chain: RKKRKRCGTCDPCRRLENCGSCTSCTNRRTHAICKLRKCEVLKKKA

The target of a further series is T2, mTet3-CXXC K88A (Mus musculus (mouse), UniProt Q8BG87 51-96, K88A).
T2 chain: T1 chain with A32Q, K38A

A further series addresses T3, mTet3-CXXC T80A (Mus musculus (mouse), UniProt Q8BG87 51-96, T80A).
T3 chain: T1 chain with T30A, A32Q

The target in a further series is T4, mTet3-CXXC H81A (Mus musculus (mouse), UniProt Q8BG87 51-96, H81A).
T4 chain: T1 chain with H31A, A32Q

In another series the target is T5, XtTet3-CXXC (Xenopus tropicalis, UniProt A0JP82 58-99).
T5 chain: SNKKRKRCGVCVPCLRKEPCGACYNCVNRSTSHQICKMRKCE

The target of a further series is T6, mTet3-CXXC (Mus musculus (mouse), UniProt Q8BG87 51-96).
T6 chain: T1 chain with A32Q

Positions count from the first letter of the chain named.

B1: CCG DNA (dsDNA)
DNA 1: GAATCCGGATTC
DNA 2: GAATCCGGATTC
The Kd is the free concentration of one partner at which half of the binding sites on the other are occupied at equilibrium, for simple one-to-one binding. For B1, the Kd turned out to be 2380 nM in the series with mTet3-CXXC Q82A; 5320 nM with mTet3-CXXC K88A; 1790 nM with mTet3-CXXC T80A; 2580 nM with XtTet3-CXXC; 1880 nM with mTet3-CXXC. Further, the binding result with mTet3-CXXC H81A was “no binding”.

B2: ChmCG DNA (dsDNA)
DNA 1: GAATCCGGATTC
DNA 2: GAATCCGGATTC
modifications: 5-hydroxymethyl-dC at position 6 of both strands
Turning to B2, the Kd with XtTet3-CXXC was 18600 nM.

B3: CcaCG DNA (dsDNA)
DNA 1: GAATCCGGATTC
DNA 2: GAATCCGGATTC
modifications: 5-carboxyl-dC at position 6 of both strands
For the molecule B3, the Kd with mTet3-CXXC Q82A worked out at 970 nM; with mTet3-CXXC T80A it was 910 nM; in the series with XtTet3-CXXC, 1300 nM; in the series with mTet3-CXXC it was 560 nM. For the same molecule, the binding result in the series with mTet3-CXXC H81A is “no binding”.

B4: hemi-CcaCG DNA (dsDNA)
DNA 1: GAATCCGGATTC
DNA 2: GAATCCGGATTC
modifications: 5-carboxyl-dC at position 6 of one strand only
In the case of B4, binding in the series with mTet3-CXXC was characterised by a dissociation constant (Kd) of 1570 nM.

B5: CmCG DNA (dsDNA)
DNA 1: GAATCCGGATTC
DNA 2: GAATCCGGATTC
modifications: 5-methyl-dC at position 6 of both strands
Consider B5, for which the Kd in the series with XtTet3-CXXC came to 9000 nM; with mTet3-CXXC it was 5590 nM.

B6: CfCG DNA (dsDNA)
DNA 1: GAATCCGGATTC
DNA 2: GAATCCGGATTC
modifications: 5-formyl-dC at position 6 of both strands
For B6, the Kd with XtTet3-CXXC was found to be 10400 nM; with mTet3-CXXC it was 6130 nM.

The values above are taken from article PMC4731272.
